Test results as given in PMC7699580, “Transmembrane Polar Relay Drives the Allosteric Regulation for ABCG5/G8 Sterol Transporter” (International Journal of Molecular Sciences, 2020).
Numbering of substitutions follows the chain as printed. In names and notes the source's numbering stands.

B1: ABCG5/G8 (Homo sapiens) (protein)
chain 1: MGDLSSLTPGGSMGLQVNRGSQSSLEGAPATAPEPHSLGILHASYSVSHRVRPWWDITSCRQQWTRQILKDVSLYVESGQIMCILGSSGSGKTTLLDAMSGRLGRAGTFLGEVYVNGRALRREQFQDCFSYVLQSDTLLSSLTVRETLHYTALLAIRRGNPGSFQKKVEAVMAELSLSHVADRLIGNYSLGGISTGERRRVSIAAQLLQDPKVMLFDEPTTGLDCMTANQIVVLLVELARRNRIVVLTIHQPRSELFQLFDKIAILSFGELIFCGTPAEMLDFFNDCGYPCPEHSNPFDFYMDLTSVDTQSKEREIETSKRVQMIESAYKKSAICHKTLKNIERMKHLKTLPMVPFKTKDSPGVFSKLGVLLRRVTRNLVRNKLAVITRLLQNLIMGLFLLFFVLRVRSNVLKGAIQDRVGLLYQFVGATPYTGMLNAVNLFPVLRAVSDQESQDGLYQKWQMMLAYALHVLPFSVVATMIFSSVCYWTLGLHPEVARFGYFSAALLAPHLIGEFLTLVLLGIVQNPNIVNSVVALLSIAGVLVGSGFLRNIQEMPIPFKIISYFTFQKYCSEILVVNEFYGLNFTCGSSNVSVTTNPMCAFTQGIQFIEKTCPGATSRFTMNFLILYSFIPALVILGIVVFKIRDHLISR
chain 2: MAGKAAEERGLPKGATPQDTSGLQDRLFSSESDNSLYFTYSGQPNTLEVRDLNYQVDLASQVPWFEQLAQFKMPWTSPSCQNSCELGIQNLSFKVRSGQMLAIIGSSGCGRASLLDVITGRGHGGKIKSGQIWINGQPSSPQLVRKCVAHVRQHNQLLPNLTVRETLAFIAQMRLPRTFSQAQRDKRVEDVIAELRLRQCADTRVGNMYVRGLSGGERRRVSIGVQLLWNPGILILDEPTSGLDSFTAHNLVKTLSRLAKGNRLVLISLHQPRSDIFRLFDLVLLMTSGTPIYLGAAQHMVQYFTAIGYPCPRYSNPADFYVDLTSIDRRSREQELATREKAQSLAALFLEKVRDLDDFLWKAETKDLDEDTCVESSVTPLDTNCLPSPTKMPGAVQQFTTLIRRQISNDFRDLPTLLIHGAEACLMSMTIGFLYFGHGSIQLSFMDTAALLFMIGALIPFNVILDVISKCYSERAMLYYELEDGLYTTGPYFFAKILGELPEHCAYIIIYGMPTYWLANLRPGLQPFLLHFLLVWLVVFCCRIMALAAAALLPTFHMASFFSNALYNSFYLAGGFMINLSSLWTVPAWISKVSFLRWCFEGLMKIQFSRRTYKMPLGNLTIAVSGDKILSVMELDSYPLYAIYLIVIGLSGGFMVLYYVSLRFIKQKPSQDW
notes: full-length heterodimer; ABCG5 C-terminal His6GlyHis6, ABCG8 C-terminal 3C site and CBP (CBP tag and N-glycans kept); Pichia pastoris KM71H; DDM-purified
B2: ABCG5/G8 (Homo sapiens; Q9H221:R543S) (protein)
chain 1: B1 chain 1
chain 2: B1 chain 2 with R543S
notes: as for B1
B3: ABCG5/G8 (Homo sapiens; Q9H222:E146Q) (protein)
chain 1: B1 chain 1 with E146Q
chain 2: B1 chain 2
notes: as for B1
B4: ABCG5/G8 (Homo sapiens; Q9H222:A540F) (protein)
chain 1: B1 chain 1 with A540F
chain 2: B1 chain 2
notes: as for B1

substrate: Nc1ncnc2c1ncn2[C@@H]1O[C@H](COP(=O)(O)OP(=O)(O)OP(=O)(O)O)[C@@H](O)[C@H]1O; experiment: colorimetric bismuth citrate phosphate-release ATPase assay; type: biochemical, Homo sapiens; conditions: E. coli polar lipids, 1.5% sodium cholate, 4.1 mM CHS, Mg2+, 0.1% DDM, pH 7.5, 37 °C
From the text: colorimetric bismuth citrate phosphate-release ATPase assay on ABCG5/G8

Protein | Km | Vmax | kcat | kcat/Km
B1 | 600 ± 70 µM | 0.677 µmol/min/mg | 1.69 ± 0.06 s⁻¹ | 2800 M⁻¹ s⁻¹
B2 | 420 ± 40 µM | 0.151 µmol/min/mg | 0.38 ± 0.01 s⁻¹ | 900 M⁻¹ s⁻¹
B3 | 510 ± 50 µM | 0.167 µmol/min/mg | 0.41 s⁻¹ | 820 M⁻¹ s⁻¹
B4 | 580 ± 80 µM | 0.101 µmol/min/mg | 0.25 ± 0.01 s⁻¹ | 430 M⁻¹ s⁻¹
